# Source: IntAct's records for PubMed 29892012
# B1: Abl interactor 2 (Homo sapiens), Q9NYB9 (parent)
# chain: MAELQMLLEEEIPGGRRALFDSYTNLERVADYCENNYIQSADKQRALEETKAYTTQSLASVAYLINTLANNVLQMLDIQASQLRRMESSINHISQTVDIHKEKVARREIGILTTNKNTSRTHKIIAPANLERPVRYIRKPIDYTILDDIGHGVKWLLRFKVSTQNMKMGGLPRTTPPTQKPPSPPMSGKGTLGRHSPYRTLEPVRPPVVPNDYVPSPTRNMAPSQQSPVRTASVNQRNRTYSSSGSSGGSHPSSRSSSRENSGSGSVGVPIAVPTPSPPSVFPAPAGSAGTPPLPATSASAPAPLVPATVPSSTAPNAAAGGAPNLADGFTSPTPPVVSSTPPTGHPVQFYSMNRPASRHTPPTIGGSLPYRRPPSITSQTSLQNQMNGGPFYSQNPVSDTPPPPPPVEEPVFDESPPPPPPPEDYEEEEAAVVEYSDPYAEEDPPWAPRSYLEKVVAIYDYTKDKEDELSFQEGAIIYVIKKNDDGWYEGVMNGVTGLFPGNYVESIMHYSE
# partner: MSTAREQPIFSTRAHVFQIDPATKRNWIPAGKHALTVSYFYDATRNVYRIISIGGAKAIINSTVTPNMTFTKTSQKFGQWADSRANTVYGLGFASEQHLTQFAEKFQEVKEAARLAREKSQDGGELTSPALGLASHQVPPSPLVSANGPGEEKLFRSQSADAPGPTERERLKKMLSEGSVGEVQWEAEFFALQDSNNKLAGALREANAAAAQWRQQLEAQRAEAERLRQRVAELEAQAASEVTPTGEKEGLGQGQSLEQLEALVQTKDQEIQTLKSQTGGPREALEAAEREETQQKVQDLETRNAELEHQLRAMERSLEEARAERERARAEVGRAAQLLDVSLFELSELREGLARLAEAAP
# B2: Abl interactor 2 (Homo sapiens), Q9NYB9 (parent)
# chain: B1 chain
# partner: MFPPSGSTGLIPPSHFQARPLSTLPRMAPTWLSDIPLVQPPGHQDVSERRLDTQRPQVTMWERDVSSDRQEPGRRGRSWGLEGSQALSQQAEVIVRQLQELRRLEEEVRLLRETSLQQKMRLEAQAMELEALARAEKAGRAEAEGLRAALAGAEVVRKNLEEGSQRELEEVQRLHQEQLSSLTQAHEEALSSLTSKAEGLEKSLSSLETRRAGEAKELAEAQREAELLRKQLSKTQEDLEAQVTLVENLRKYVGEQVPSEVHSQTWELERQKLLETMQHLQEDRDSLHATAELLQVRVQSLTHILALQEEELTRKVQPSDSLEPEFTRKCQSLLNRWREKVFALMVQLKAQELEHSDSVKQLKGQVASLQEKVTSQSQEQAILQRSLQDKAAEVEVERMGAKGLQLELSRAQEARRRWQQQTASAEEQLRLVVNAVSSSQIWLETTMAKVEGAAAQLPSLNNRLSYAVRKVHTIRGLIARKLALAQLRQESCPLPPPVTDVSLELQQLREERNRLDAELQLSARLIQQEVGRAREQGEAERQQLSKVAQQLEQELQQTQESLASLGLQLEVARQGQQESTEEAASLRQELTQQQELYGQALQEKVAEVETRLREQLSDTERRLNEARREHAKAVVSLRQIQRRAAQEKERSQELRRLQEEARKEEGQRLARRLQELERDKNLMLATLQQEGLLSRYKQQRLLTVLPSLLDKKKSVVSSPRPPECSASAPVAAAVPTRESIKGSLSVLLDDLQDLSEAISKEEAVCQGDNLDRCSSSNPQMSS
# B3: Abl interactor 2 (Homo sapiens), Q9NYB9 (parent)
# chain: B1 chain
# partner: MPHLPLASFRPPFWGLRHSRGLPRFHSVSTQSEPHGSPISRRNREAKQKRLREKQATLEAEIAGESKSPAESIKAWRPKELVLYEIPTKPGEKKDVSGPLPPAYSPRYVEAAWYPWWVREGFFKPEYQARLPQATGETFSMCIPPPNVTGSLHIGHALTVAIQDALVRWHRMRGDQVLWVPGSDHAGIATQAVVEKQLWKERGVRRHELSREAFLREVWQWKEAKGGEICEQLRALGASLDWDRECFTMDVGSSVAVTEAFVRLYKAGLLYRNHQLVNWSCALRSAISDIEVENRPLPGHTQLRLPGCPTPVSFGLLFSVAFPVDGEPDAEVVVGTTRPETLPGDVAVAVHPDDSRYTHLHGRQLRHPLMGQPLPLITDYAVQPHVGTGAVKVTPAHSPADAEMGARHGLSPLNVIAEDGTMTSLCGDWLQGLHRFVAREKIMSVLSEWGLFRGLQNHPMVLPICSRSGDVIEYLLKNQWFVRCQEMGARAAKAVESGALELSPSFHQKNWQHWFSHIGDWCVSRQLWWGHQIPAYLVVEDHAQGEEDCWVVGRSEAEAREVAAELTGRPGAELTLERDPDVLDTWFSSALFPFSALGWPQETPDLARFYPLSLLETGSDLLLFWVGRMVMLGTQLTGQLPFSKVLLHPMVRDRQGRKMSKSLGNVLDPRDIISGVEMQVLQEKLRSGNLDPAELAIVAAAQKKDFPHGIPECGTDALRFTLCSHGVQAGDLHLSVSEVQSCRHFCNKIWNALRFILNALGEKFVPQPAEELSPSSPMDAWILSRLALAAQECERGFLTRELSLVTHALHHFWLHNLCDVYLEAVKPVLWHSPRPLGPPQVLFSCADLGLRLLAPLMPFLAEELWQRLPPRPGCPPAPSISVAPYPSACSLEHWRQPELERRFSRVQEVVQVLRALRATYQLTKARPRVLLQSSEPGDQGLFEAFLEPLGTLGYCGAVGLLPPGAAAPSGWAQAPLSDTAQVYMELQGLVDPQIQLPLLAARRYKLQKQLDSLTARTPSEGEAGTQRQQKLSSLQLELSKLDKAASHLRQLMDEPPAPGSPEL
# B4: Abl interactor 2 (Homo sapiens), Q9NYB9 (parent)
# chain: B1 chain
# partner: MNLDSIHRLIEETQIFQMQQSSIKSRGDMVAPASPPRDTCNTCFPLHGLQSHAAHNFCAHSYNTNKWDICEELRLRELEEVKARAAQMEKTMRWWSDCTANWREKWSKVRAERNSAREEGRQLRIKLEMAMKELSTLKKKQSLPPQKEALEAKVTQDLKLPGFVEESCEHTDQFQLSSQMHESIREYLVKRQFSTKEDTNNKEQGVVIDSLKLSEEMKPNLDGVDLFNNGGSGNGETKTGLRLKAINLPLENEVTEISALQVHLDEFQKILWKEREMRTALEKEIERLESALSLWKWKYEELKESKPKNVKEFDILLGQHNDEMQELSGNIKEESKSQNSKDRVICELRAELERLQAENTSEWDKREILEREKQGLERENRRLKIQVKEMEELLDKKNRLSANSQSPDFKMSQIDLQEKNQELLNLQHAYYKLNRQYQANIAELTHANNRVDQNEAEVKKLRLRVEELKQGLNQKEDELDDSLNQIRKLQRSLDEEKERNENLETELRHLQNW
# B5: Abl interactor 2 (Homo sapiens), Q9NYB9 (parent)
# chain: B1 chain
# partner: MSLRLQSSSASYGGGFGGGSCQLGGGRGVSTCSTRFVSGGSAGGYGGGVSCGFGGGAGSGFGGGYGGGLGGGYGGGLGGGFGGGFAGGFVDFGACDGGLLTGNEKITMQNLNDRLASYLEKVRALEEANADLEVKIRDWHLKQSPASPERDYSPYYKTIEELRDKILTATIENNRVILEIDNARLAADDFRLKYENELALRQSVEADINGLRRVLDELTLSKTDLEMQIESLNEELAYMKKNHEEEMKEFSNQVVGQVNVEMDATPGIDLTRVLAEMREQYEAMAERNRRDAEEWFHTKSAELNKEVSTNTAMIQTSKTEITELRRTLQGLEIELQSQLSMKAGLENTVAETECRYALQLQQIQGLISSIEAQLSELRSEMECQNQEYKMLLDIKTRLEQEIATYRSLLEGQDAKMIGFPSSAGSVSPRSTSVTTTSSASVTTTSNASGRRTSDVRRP
# B6: Abl interactor 2 (Homo sapiens), Q9NYB9 (parent)
# chain: B1 chain
# partner: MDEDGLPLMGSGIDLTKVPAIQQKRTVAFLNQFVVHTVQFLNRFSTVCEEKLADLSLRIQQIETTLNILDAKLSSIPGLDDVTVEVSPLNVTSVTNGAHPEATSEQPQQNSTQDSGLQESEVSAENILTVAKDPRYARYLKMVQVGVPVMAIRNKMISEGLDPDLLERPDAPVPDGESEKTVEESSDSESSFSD
# B7: Abl interactor 2 (Homo sapiens), Q9NYB9 (parent)
# chain: B1 chain
# partner: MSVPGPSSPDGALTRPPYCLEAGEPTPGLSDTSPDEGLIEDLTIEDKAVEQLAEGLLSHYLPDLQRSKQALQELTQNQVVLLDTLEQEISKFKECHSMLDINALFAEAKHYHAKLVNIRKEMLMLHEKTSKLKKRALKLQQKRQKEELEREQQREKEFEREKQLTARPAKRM
# Variants of: B1
# Conditions: with home3_human HOMER3, Q9NSC5
row,Variant,effect of a mutation on the interaction
1,E202K,with no effect

# Variants of: B1
# Conditions: with home3_human HOMER3, Q9NSC5
# Remark: another data set of the same source
row,Variant,effect of a mutation on the interaction
1,R373C,with no effect

# Variants of: B2
# Conditions: with cchcr_human CCHCR1, Q8TD31
row,Variant,effect of a mutation on the interaction
1,E202K,with no effect

# Variants of: B2
# Conditions: with cchcr_human CCHCR1, Q8TD31
# Remark: another data set of the same source
row,Variant,effect of a mutation on the interaction
1,R373C,with no effect

# Variants of: B3
# Conditions: with syvm_human VARS2, Q5ST30
row,Variant,effect of a mutation on the interaction
1,E202K,with no effect

# Variants of: B4
# Conditions: with CCDC102B
row,Variant,effect of a mutation on the interaction
1,E202K,with no effect

# Variants of: B4
# Conditions: with CCDC102B
# Remark: another data set of the same source
row,Variant,effect of a mutation on the interaction
1,R373C,with no effect

# Variants of: B5
# Conditions: with KRT13, P13646
row,Variant,effect of a mutation on the interaction
1,E202K,with no effect

# Variants of: B5
# Conditions: with KRT13, P13646
# Remark: another data set of the same source
row,Variant,effect of a mutation on the interaction
1,R373C,with no effect

# Variants of: B6
# Conditions: with wasc3_human WASHC3, Q9Y3C0
row,Variant,effect of a mutation on the interaction
1,E202K,with no effect

# Variants of: B6
# Conditions: with wasc3_human WASHC3, Q9Y3C0
# Remark: another data set of the same source
row,Variant,effect of a mutation on the interaction
1,R373C,with no effect

# Variants of: B7
# Conditions: with bl1s6_human BLOC1S6, Q9UL45
row,Variant,effect of a mutation on the interaction
1,E202K,with no effect

# Variants of: B7
# Conditions: with bl1s6_human BLOC1S6, Q9UL45
# Remark: another data set of the same source
row,Variant,effect of a mutation on the interaction
1,R373C,with no effect
